Stoichiometry N data for two substances are collected here from article PMC11874374.

For experiment [1], the target named is histidine-tagged JAM-A (human) (UniProt Q9Y624). Kind of experiment: non-reducing gel electrophoresis.
Experiment [2] has as its target recombinant human JAM-A (Junctional Adhesion Molecule-A) (human) (UniProt Q9Y624). Put plainly: non-reducing gel electrophoresis.

Consider “histidine-tagged JAM-A (from UniProt Q9Y624 28-299) (natural protein)”, for which the stoichiometry N in experiment [1] stood at 2.
For the substance “recombinant human JAM-A (Junctional Adhesion Molecule-A) (from UniProt Q9Y624 28-299) (natural protein)”, the stoichiometry N in experiment [2] came to 3.

What is called stoichiometry N is the number of molecules, sites or subunits per partner or assembly.
